The values below come from article PMC11711090.

Experiment [1] addresses CPEB4 extracted from the brains of 6-month-old TgCPEB4Δ4 mice (human | mouse (endogenous in brain)) (UniProt Q17RY0). The experiment can be described thus: SEC + other: SDD-AGE.
Experiment [2] has as its target nCPEB4(NTD), N-terminal domain of neuronal CPEB4 (with microexon 4) (human) (UniProt Q17RY0). As to the kind of experiment: SEC-MALS.

“CPEB4 extracted from the brains of 6-month-old TgCPEB4Δ4 mice (from UniProt Q17RY0 1-729; Q7TN98 1-729) (natural protein)”: the aggregated CPEB4 eluting in the void volume, normalized to control mice in experiment [1] was 10.8. On to “nCPEB4(NTD), N-terminal domain of neuronal CPEB4 (with microexon 4) (from UniProt Q17RY0-2 1-448) (domain or fragment)”, for which the stoichiometry N in experiment [2] was found to be 350.
